Reference: patent publication US11813311B2, “Treatment and prevention of metabolic diseases” (Singapore Health Services PTE LTD., priority 2019, dated 2023)
Where two headings read alike, the source gives them in different places.

Tests used:
TGFβ1-stimulated HSCs = test: Inhibition of MMP2 secretion by TGFβ1-stimulated HSCs (IC50); assay type: cell-based, human
Protocol: HSCs (5300, ScienCell) were cultured in stellate cells complete media (5301, ScienCell) on poly-L-lysine-coated plates (2 μg/cm2, 0403, ScienCell).
HSCs were stimulated with TGFβ1(5 ng m1^−1, 24 h) in the presence of IgG (4 μg ml^−1) and varying concentrations of X209 (4 μg ml^−1 to 61 pg ml^−1; 4-fold dilutions). Supernatants were collected and assayed for the amount of secreted MMP2. Dose-response curves were generated by plotting the logarithm of X209 tested concentration (pM) versus corresponding percent inhibition values using least squares (ordinary) fit. The IC50 value was calculated using log(inhibitor) versus normalized response-variable slope equation.
The levels of IL-11 and MMP-2 in equal volumes of cell culture media were quantified using Human IL-11 Quantikine ELISA kit (D1100, R&D Systems) and Total MMP-2 Quantikine ELISA kit (MMP200, R&D Systems), respectively. Total secreted collagen in the cell culture supernatant was quantified using Sirius red collagen detection kit (9062, Chondrex). Total hydroxyproline content in the livers was measured using Quickzyme Total Collagen assay kit (Quickzyme Biosciences). Mouse serum levels of alanine aminotransferease (ALT), cholesterol, and triglycerides were measured using Alanine Transaminase Activity Assay Kit (ab105134, abcam), Cholesterol Assay Kit (ab65390, abcam), and Triglyceride Assay Kit (ab65336, abcam), respectively. […]

HFMCD-fed mice = test: HFMCD diet model of cachexia-related weight loss; assay type: in vivo, mouse
Description: High fat methionine choline deficient diet (HFMCD) was used to establish cachexia-like metabolic disorder. In order to establish cachexia weight loss and lean mass loss, C57BL/6N mice were fed with methionine and choline deficient (HFMCD) diet supplemented with 60 kcal % fat (A06071301B, Research Diets).
Five-week old male mice were fed a methionine- and choline-deficient (MCD) diet with 60 kcal % fat (A06071301B, Research Diets), designated a high fat MCD (HFMCD) diet, which causes more severe NASH than an MCD diet alone. Control mice were fed with normal chow (NC; Specialty Feeds). Mice were intraperitoneally injected twice per week with 10 mg/kg of anti-IL-11 antibody or anti-IL-11 RA antibody, or identical concentration of IgG isotype control one week after they had received HFMCD for the same treatment duration. Body weight was measured weekly.
To investigate further the effect of inhibition of IL-11-mediated signalling with respect to cachexia, a range of doses of anti-IL-11 therapy were studied in the MCD model. Five-week old male mice were fed on the HFMCD or NC diet as before for one week to induce cachexia, resulting in a ˜15% loss in body weight in MCD mice. After the initial week, mice were intraperitoneally injected twice per week with 0.5, 1, 5 or 10 mg/kg of anti-IL-11 or anti-IL-11 RA antibody. Three antibodies were studied: two anti-IL-11 ((1) and (2)), and one anti-IL-11 RA. 10 mg/kg of IgG isotype antibody was used as a control.
Body weight and food consumption were measured weekly. For food consumption, average food intake was measured (g/mouse/week) in food hoppers from cages (n=3 mice per cage).

[1] = test system: mice with folate-induced kidney injury; test: Weight loss after folate-induced acute kidney injury; assay type: in vivo, mouse
Protocol: Kidney injury was induced by IP injection of folic acid (180 mg/kg) in vehicle (0.3M NaHCO3) to 10-week old male mice; control mice were administered vehicle alone. Animals were sacrificed 28 days post-injection. Mice were intraperitoneally injected every 3 days with 20 mg/kg of anti-IL-11 antibody, anti-IL-11 RA antibody or identical concentration of IgG isotype control starting from 1 hour before folic acid administration until the mice were sacrificed.
In a second experiment kidney injury was induced as before by IP injection of folic acid. Mice were only treated with anti-IL-11 antibody or IgG control from 21 days after kidney injury. Animal weight was assessed before and after antibody treatment.

[2] = Blood pharmacokinetics and biodistribution of 125I-X209; assay type: in vivo, mouse
Protocol: C57BL/6J mice (10-12-weeks old) were retro-orbitally injected (left eye) with 100 μl of freshly radiolabeled ^125I-X209 (5 μCi, 2.5 μg) in PBS. Mice were anesthetized with 2% isoflurane and blood were collected at several time points (2, 5, 10, 15, 30 m, 1, 2, 4, 6, 8 h, 1, 2, 3, 7, 14 and 21 days) post injection via submandibular bleeding. For biodistribution studies, blood was collected via cardiac puncture and tissues were harvested at the following time points: 1, 4 h, 1, 3, 7, 14, 21 days post injection. The radioactivity contents were measured using a gamma counter (2480 Wizard2, Perkin Elmer) with decay-corrections (100× dilution of 100 μl dose). The measured radioactivity was normalized to % injected dose/g tissue.

[3] = 20 mg/kg every 3 days from 1 hour before folic acid
[4] = 0.5, 1, 5 or 10 mg/kg twice per week

IC50 (TGFβ1-stimulated HSCs; read-out: IC50 for HSC activation) | IC50 (TGFβ1-stimulated HSCs; TGFβ1 5 ng/ml, 24 h, 4 μg/ml to 61 pg/ml, 4-fold dilutions, read-out: IC50, blocking MMP2 secretion from HSCs) | Molecule | body weight (HFMCD-fed mice; 10 mg/kg twice per week from week 1, listed as anti-IL-11, 10 mg/kg) | body weight [1, 3] | body weight ([1]; treated from 21 days after kidney injury) | body weight (HFMCD-fed mice; 10 mg/kg twice per week from week 1, listed as anti-IL-11 RA, 10 mg/kg) | body weight (HFMCD-fed mice; 10 mg/kg twice per week from week 1, listed as anti-IL-11Rα, 10 mg/kg) | body weight (HFMCD-fed mice; [4]) | food consumption (HFMCD-fed mice; [4]) | liver uptake ([2]; 125I-X209, mice) | in vivo half-life ([2]; 125I-X209, retro-orbital injection, mice)
0.0401 nM |  | X203: mouse anti-mouse IL-11 IgG (IgG1κ), neutralising; VH SEQ ID NO:22, VL SEQ ID NO:23 (antibody, V domains shown, Enx203 VH; Enx203 VL) VH: EVQLQQSGPELVKPGASVKIPCKASGYTFTDYNMDWVKQSHGKSLEWIGDINPHNGGPIYNQKFTGKATLTVDKSSSTAYMELRSLTSEDTAVYYCARGELGHWYFDVWGTGTTVTVSS VL: DIVLTQSPASLAVSLGQRATISCRASKSVSTSGYSYIHWYQQKPGQPPKLLIYLASNLDSGVPARFSGSGSGTDFTLNIHPVEEEDAATYYCQHSRDLPPTFGGGTKLEIK | quickly regained weight and returned to normal, or near-normal, weight by 5 weeks later | returned to normal, or near normal, weight by 3 weeks later | started to regain weight upon initiation of treatment |  |  |  |  |  | 
 | 0.0058 nM | X209: mouse anti-mouse IL-11Rα IgG (IgG1κ), neutralising; VH SEQ ID NO:24, VL SEQ ID NO:25 (antibody, V domains shown, Enx209 VH; Enx209 VL) VH: QVQLQQPGAELVRPGSSVKLSCKASGYTFTNYWMHWLKQRPVQGLEWIGNIGPSDSKTHYNQKFKDKATLTVDKSSSTAYMQLNSLTSEDSAVYYCARGDYVLFTYWGQGTLVTVSA VL: DIVLTQSPATLSLSPGERATLSCRASQSISNNLHWYQQKSHEAPRLLIKYASQSISGIPARFSGSGSGTDFTLSFSSLETEDFAVYFCQQSYSWPLTFGQGTKLEIK |  | returned to normal, or near normal, weight by 3 weeks later |  | quickly regained weight and returned to normal, or near-normal, weight by 5 weeks later | returned to normal or near-normal weight | most effective in reversing weight loss | greatest increase in food intake | good liver uptake | approximately 18 days
